Molecular target: streptavidin (UniProt P22629 P22629:25-183)
Experiment: pulldown; recovery similar to tRNA scaffold control, described as non-specific under these conditions
Conditions: tags: immobilised on sepharose beads (streptavidin sepharose); chain copies: 4 (inferred)
Description: Subsequently, the beads were resuspended in 20 μL of binding buffer with RNasin Ribonuclease Inhibitor (3 μL/100 units) and then incubated on ice for 15 minutes. (2) Preparation of RNA aptamers. 2.5 μg of the RNA aptamers were resuspended in 10 μL binding buffer. Refolding of the RNA aptamers was performed by heating at 56° C. for 5 min, 37° C. for 10 min, followed by a room temperature incubation for 5 minutes to refold aptamer structure. At the end of the RNA aptamer preparation procedure, 2 μL of the random aptamer and the Sim aptamer in a 1:2 mix with binding buffer were collected as a control for total RNA aptamer yield (input control). (3) Incubation conditions. 10 μL of refolded aptamer containing mRNA (2.5 μg) aptamers were added to the beads and incubated at 4° C. for 2 hours on a rotator. Subsequently, beads were washed 3 times with 100 μL of binding buffer and kept on ice for the remainder of the procedure to maintain aptamer secondary structure. (4) Elution of RNA aptamers from beads. Elution was performed with 250 μL phenol-based reagent in the following steps. […] RNA concentration following streptavidin affinity purification was quantified on a Nanodrop using parameters set by the manufacturer's specifications.
Affinity binding of the Sm, tRNA, tRNA-Sm, and 2× tRNA Sm aptamer tags were analyzed. […]

Sequence of streptavidin (P22629 25-183, one chain of several): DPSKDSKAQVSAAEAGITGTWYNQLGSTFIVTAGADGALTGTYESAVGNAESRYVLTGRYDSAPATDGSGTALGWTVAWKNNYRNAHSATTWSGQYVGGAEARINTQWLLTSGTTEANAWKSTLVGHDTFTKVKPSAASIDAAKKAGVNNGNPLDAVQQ

B1: Sm aptamer (pAM20) (ssRNA)
RNA: CGACCAGAAUCAUGCAAGUGCGUAAGAUAGUCGCGGG
- binding result: no binding

Source: US20240327847, “COMPOSITIONS AND METHODS FOR RNA AFFINITY” (SANOFI, published 2024)
